According to patent CN116284426A (SUNSHINE GUOJIAN PHARMACEUTICAL SHANGHAI CO LTD, dated 2023):

Experiments:
[1] = target: T1, GUCY2C-His蛋白 (human GUCY2C extracellular region with C-terminal 6xHis) (human, UniProt P25092 24-430); test: ELISA, GUCY2C-His coated, anti-human IgG Fc HRP
T1 construct: extracellular domain; Made in HEK-293F with an unspecified N-terminal signal peptide; also called 人GUCY2C-His蛋白

[2] = target: T2, GUCY2C-Fc蛋白 (human GUCY2C extracellular region fused to human IgG1 Fc) (human, UniProt P25092 24-430); test: ELISA, GUCY2C-Fc coated, anti-human IgG Fab HRP
T2 construct: extracellular domain; Made in HEK-293F with an unspecified N-terminal signal peptide; also called 人GUCY2C-Fc蛋白; not shown: human IgG1 Fc at the C-terminus in place of the 6xHis tag
T2 sequence (P25092 24-430 limits assumed): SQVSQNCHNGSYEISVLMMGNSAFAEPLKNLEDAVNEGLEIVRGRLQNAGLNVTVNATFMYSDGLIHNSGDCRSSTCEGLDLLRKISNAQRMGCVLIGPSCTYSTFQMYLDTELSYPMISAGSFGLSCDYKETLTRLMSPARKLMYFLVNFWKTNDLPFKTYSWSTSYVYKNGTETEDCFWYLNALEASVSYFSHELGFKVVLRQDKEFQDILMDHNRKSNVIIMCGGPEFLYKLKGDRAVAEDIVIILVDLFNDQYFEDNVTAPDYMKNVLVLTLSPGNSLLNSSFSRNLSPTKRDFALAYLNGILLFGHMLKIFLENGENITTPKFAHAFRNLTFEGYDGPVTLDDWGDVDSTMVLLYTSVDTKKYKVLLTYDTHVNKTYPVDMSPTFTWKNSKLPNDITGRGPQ

[3] = target: T3, GUCY2C on tumour cells (CW2, CW2-GCC#1, T84) (human, UniProt P25092 24-1073); test: flow cytometry on CW2-GCC#1 cells (GUCY2C-overexpressing CW2)
T3 construct: whole, on cells; Only CW2-GCC#1 is expressly said to express GUCY2C; also called 鸟苷酸环化酶2C; 人结肠癌细胞CW2
T3 sequence (P25092 24-1073): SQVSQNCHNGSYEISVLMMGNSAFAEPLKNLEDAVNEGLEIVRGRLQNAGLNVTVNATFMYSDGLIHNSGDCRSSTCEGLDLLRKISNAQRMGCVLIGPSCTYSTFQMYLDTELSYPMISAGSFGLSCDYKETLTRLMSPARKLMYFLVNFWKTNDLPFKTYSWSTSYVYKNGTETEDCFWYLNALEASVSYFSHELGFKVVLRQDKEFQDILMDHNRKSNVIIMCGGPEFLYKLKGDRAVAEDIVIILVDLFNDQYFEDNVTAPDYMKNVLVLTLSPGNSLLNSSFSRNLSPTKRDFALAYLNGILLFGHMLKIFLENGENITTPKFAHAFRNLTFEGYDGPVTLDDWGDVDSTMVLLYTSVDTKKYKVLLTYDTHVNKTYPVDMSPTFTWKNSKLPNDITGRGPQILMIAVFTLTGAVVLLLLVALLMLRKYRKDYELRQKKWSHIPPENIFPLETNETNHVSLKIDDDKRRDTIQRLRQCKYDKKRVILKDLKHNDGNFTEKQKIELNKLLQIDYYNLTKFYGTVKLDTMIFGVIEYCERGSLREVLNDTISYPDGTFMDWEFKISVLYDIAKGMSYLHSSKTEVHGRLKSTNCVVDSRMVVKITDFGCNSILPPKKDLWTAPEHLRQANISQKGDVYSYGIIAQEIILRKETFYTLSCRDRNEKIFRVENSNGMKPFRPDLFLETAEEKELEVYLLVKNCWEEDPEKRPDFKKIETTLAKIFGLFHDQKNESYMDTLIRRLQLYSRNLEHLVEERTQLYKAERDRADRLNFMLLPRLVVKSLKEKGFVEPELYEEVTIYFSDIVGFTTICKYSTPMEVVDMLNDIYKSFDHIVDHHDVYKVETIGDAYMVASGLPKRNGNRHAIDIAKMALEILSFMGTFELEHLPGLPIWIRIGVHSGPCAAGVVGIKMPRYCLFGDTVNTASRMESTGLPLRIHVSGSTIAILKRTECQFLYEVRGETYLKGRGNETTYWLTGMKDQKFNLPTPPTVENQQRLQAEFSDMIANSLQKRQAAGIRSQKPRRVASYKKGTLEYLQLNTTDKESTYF

[4] = target: T1, GUCY2C-His蛋白 (human GUCY2C …); test: ELISA, GUCY2C-His coated, anti-human IgG Fab HRP (Table 9)
[5] = target: T2, GUCY2C-Fc蛋白 (human GUCY2C extracellular …); test: ELISA, GUCY2C-Fc coated, anti-human IgG Fab HRP (Table 11)
[6] = target: T2, GUCY2C-Fc蛋白 (human GUCY2C extracellular …); test: ELISA, GUCY2C-Fc coated, anti-human IgG Fab HRP (Table 18)
[7] = target: T1, GUCY2C-His蛋白 (human GUCY2C …); test: ELISA, GUCY2C-His coated, anti-human IgG Fab HRP (Table 17)
[8] = target: T2, GUCY2C-Fc蛋白 (human GUCY2C extracellular …); test: indirect ELISA, GUCY2C-Fc coated at 1 ug/mL, anti-mouse HRP
[9] = target: T3, GUCY2C on tumour cells (CW2, CW2-GCC#1, …); test: flow cytometry on CW2 human colon cancer cells, anti-mouse PE
[10] = target: T1, GUCY2C-His蛋白 (human GUCY2C …); test: ELISA, GUCY2C-His coated at 0.1 ug/mL, anti-mouse HRP (Table 3)

T1 sequence (P25092 other isoform, or with tags, fused parts or gaps): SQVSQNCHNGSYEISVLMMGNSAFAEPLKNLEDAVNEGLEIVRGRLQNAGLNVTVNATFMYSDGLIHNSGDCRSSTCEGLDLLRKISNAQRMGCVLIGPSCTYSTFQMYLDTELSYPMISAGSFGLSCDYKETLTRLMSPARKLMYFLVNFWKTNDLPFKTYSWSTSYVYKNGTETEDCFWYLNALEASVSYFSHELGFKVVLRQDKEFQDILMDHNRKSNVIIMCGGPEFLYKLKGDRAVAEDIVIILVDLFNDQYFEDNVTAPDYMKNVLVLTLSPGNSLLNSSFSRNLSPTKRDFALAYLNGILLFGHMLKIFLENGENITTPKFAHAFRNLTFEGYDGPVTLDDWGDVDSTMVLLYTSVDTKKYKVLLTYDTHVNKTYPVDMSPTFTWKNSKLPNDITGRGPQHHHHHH

Binder	EC50 [1]	EC50 [2]	EC50 [3]	EC50 [4]	EC50 [5]	EC50 [6]	EC50 [7]	EC50 [8]	EC50 [9]	EC50 [10]
32H2-Hu (antibody, V domains shown) VH: EVQLVESGGGLVKPGGSLRLSCAASGFSFRTYAMSWVRQAPGKSLEWVATISSGSSYIYYPDSVKGRFTVSRDNAKNSLYLQMNSLRAEDTAVYYCTCYRMETFEYWGQGTLVTVSS VL: DVVMTQSPLSLPVTLGQPASISCRSSQSLVYNNGNTYLHWYQQRPGQSPRLLIYKVSNRFSGVPDRFSGSGSGTDFTLKISRVEAEDVGVYFCSQSTHVPLTFGQGTKVEIKR	468 pM	452 pM	96300 pM	240 pM	230 pM	759 pM	244 pM			
43D11B1D2 (antibody, V domains shown) VH: DVKLVESGGVLVKLGGSLKLSCAASGFTFSGYFMSWVRQTPEKRLELVAAINSDGGSTYYPDTVKGRFTISRDNAKNTLYLQMSSLKSEDTALYYCARLARYLYAMDYWGQGTSVTVSS VL: QIVLTQSPAIMSASPGEKVTMTCSASSSVSYMYWYQQKPGSSPRLLIYDTSNLASGVPVRFSGSGSGTSYSLTISRMEAEDAATYYCQQWTSSSWTFGGGTKLEIK								0.018 µg/mL	0.365 µg/mL	990 pM
